The results in this text go back to FireProtDB (doi:10.1038/nsb0996-782).

The conditions of the data set: Escherichia coli (strain K12); pH 5.1; 25 °C; GdnHCl; NMR; Sodium acetate 100mM; whole UniProt chain shown.

B1: Ribonuclease HI wild type, P0A7Y4 (protein)
chain: MLKQVEIFTDGSCLGNPGPGGYGAILRYRGREKTFSAGYTRTTNNRMELMAAIVALEALKEHCEVILSTDSQYVRQGITQWIHNWKKRGWKTADKKPVKNVDLWQRLDAALGQHQIKWEWVKGHAGHPENERCDELARAAAMNPTLEDTGYQVEV
For B1, the unfolding free energy turned out to be 10.5 kcal/mol.
